From patent US11499162B2, “Plants having increased tolerance to herbicides” (BASF SE, priority 2016, dated 2022) come the findings set out here.

The labels stand for the following.
B1: E246D: mutated TriA variant of SEQ ID NO: 2 (protein)
chain: MQTLSIQHGTLVTMDQYRRVLGDSWVHVQDGRIVALGVHAESVPPPADRVIDARGKVVLPGFINAHTHVNQILLRGGPSHGRQLYDWLFNVLYPGQKAMRPEDVAVAVRLYCAEAVRSGITTINDNADSAIYPGNIEAAMAVYGEVGVRVVYARMFFDRMDGRIQGYVDALKARSPQVELCSIMEETAVAKDRITALSDQYHGTAGGRISVWPAPAITPAVTVEGMRWAQAFARDRAVMWTLHMADSDHDERLHWMSPAEYMECYGLLDERLQVAHCVYFDRKDVRLLHRHNVKVASQVVSNAYLGSGVAPVPEMVERGMAVGIGTDDGNCNDSVNMIGDMKFMAHIHRAVHRDADVLTPEKILEMATIDGARSLGMDHEIGSIETGKRADLILLDLRHPQTTPHHHLAATIVFQAYGNEVDTVLIDGNVVMENRRLSFLPPERELAFLEEAQSRATAILQRANMVANPAWRSL
modifications: Pseudomonas
B2: D248S: mutated TriA variant of SEQ ID NO: 2 (protein)
chain: MQTLSIQHGTLVTMDQYRRVLGDSWVHVQDGRIVALGVHAESVPPPADRVIDARGKVVLPGFINAHTHVNQILLRGGPSHGRQLYDWLFNVLYPGQKAMRPEDVAVAVRLYCAEAVRSGITTINDNADSAIYPGNIEAAMAVYGEVGVRVVYARMFFDRMDGRIQGYVDALKARSPQVELCSIMEETAVAKDRITALSDQYHGTAGGRISVWPAPAITPAVTVEGMRWAQAFARDRAVMWTLHMAESSHDERLHWMSPAEYMECYGLLDERLQVAHCVYFDRKDVRLLHRHNVKVASQVVSNAYLGSGVAPVPEMVERGMAVGIGTDDGNCNDSVNMIGDMKFMAHIHRAVHRDADVLTPEKILEMATIDGARSLGMDHEIGSIETGKRADLILLDLRHPQTTPHHHLAATIVFQAYGNEVDTVLIDGNVVMENRRLSFLPPERELAFLEEAQSRATAILQRANMVANPAWRSL
modifications: Pseudomonas
B3: D248G: mutated TriA variant of SEQ ID NO: 2 (protein)
chain: MQTLSIQHGTLVTMDQYRRVLGDSWVHVQDGRIVALGVHAESVPPPADRVIDARGKVVLPGFINAHTHVNQILLRGGPSHGRQLYDWLFNVLYPGQKAMRPEDVAVAVRLYCAEAVRSGITTINDNADSAIYPGNIEAAMAVYGEVGVRVVYARMFFDRMDGRIQGYVDALKARSPQVELCSIMEETAVAKDRITALSDQYHGTAGGRISVWPAPAITPAVTVEGMRWAQAFARDRAVMWTLHMAESGHDERLHWMSPAEYMECYGLLDERLQVAHCVYFDRKDVRLLHRHNVKVASQVVSNAYLGSGVAPVPEMVERGMAVGIGTDDGNCNDSVNMIGDMKFMAHIHRAVHRDADVLTPEKILEMATIDGARSLGMDHEIGSIETGKRADLILLDLRHPQTTPHHHLAATIVFQAYGNEVDTVLIDGNVVMENRRLSFLPPERELAFLEEAQSRATAILQRANMVANPAWRSL
modifications: Pseudomonas
B4: S247P: mutated TriA variant of SEQ ID NO: 2 (protein)
chain: MQTLSIQHGTLVTMDQYRRVLGDSWVHVQDGRIVALGVHAESVPPPADRVIDARGKVVLPGFINAHTHVNQILLRGGPSHGRQLYDWLFNVLYPGQKAMRPEDVAVAVRLYCAEAVRSGITTINDNADSAIYPGNIEAAMAVYGEVGVRVVYARMFFDRMDGRIQGYVDALKARSPQVELCSIMEETAVAKDRITALSDQYHGTAGGRISVWPAPAITPAVTVEGMRWAQAFARDRAVMWTLHMAEPDHDERLHWMSPAEYMECYGLLDERLQVAHCVYFDRKDVRLLHRHNVKVASQVVSNAYLGSGVAPVPEMVERGMAVGIGTDDGNCNDSVNMIGDMKFMAHIHRAVHRDADVLTPEKILEMATIDGARSLGMDHEIGSIETGKRADLILLDLRHPQTTPHHHLAATIVFQAYGNEVDTVLIDGNVVMENRRLSFLPPERELAFLEEAQSRATAILQRANMVANPAWRSL
modifications: Pseudomonas
B5: S247V: mutated TriA variant of SEQ ID NO: 2 (protein)
chain: MQTLSIQHGTLVTMDQYRRVLGDSWVHVQDGRIVALGVHAESVPPPADRVIDARGKVVLPGFINAHTHVNQILLRGGPSHGRQLYDWLFNVLYPGQKAMRPEDVAVAVRLYCAEAVRSGITTINDNADSAIYPGNIEAAMAVYGEVGVRVVYARMFFDRMDGRIQGYVDALKARSPQVELCSIMEETAVAKDRITALSDQYHGTAGGRISVWPAPAITPAVTVEGMRWAQAFARDRAVMWTLHMAEVDHDERLHWMSPAEYMECYGLLDERLQVAHCVYFDRKDVRLLHRHNVKVASQVVSNAYLGSGVAPVPEMVERGMAVGIGTDDGNCNDSVNMIGDMKFMAHIHRAVHRDADVLTPEKILEMATIDGARSLGMDHEIGSIETGKRADLILLDLRHPQTTPHHHLAATIVFQAYGNEVDTVLIDGNVVMENRRLSFLPPERELAFLEEAQSRATAILQRANMVANPAWRSL
modifications: Pseudomonas
B6: N70G: mutated TriA variant of SEQ ID NO: 2 (protein)
chain: MQTLSIQHGTLVTMDQYRRVLGDSWVHVQDGRIVALGVHAESVPPPADRVIDARGKVVLPGFINAHTHVGQILLRGGPSHGRQLYDWLFNVLYPGQKAMRPEDVAVAVRLYCAEAVRSGITTINDNADSAIYPGNIEAAMAVYGEVGVRVVYARMFFDRMDGRIQGYVDALKARSPQVELCSIMEETAVAKDRITALSDQYHGTAGGRISVWPAPAITPAVTVEGMRWAQAFARDRAVMWTLHMAESDHDERLHWMSPAEYMECYGLLDERLQVAHCVYFDRKDVRLLHRHNVKVASQVVSNAYLGSGVAPVPEMVERGMAVGIGTDDGNCNDSVNMIGDMKFMAHIHRAVHRDADVLTPEKILEMATIDGARSLGMDHEIGSIETGKRADLILLDLRHPQTTPHHHLAATIVFQAYGNEVDTVLIDGNVVMENRRLSFLPPERELAFLEEAQSRATAILQRANMVANPAWRSL
modifications: Pseudomonas
B7: S247N: mutated TriA variant of SEQ ID NO: 2 (protein)
chain: MQTLSIQHGTLVTMDQYRRVLGDSWVHVQDGRIVALGVHAESVPPPADRVIDARGKVVLPGFINAHTHVNQILLRGGPSHGRQLYDWLFNVLYPGQKAMRPEDVAVAVRLYCAEAVRSGITTINDNADSAIYPGNIEAAMAVYGEVGVRVVYARMFFDRMDGRIQGYVDALKARSPQVELCSIMEETAVAKDRITALSDQYHGTAGGRISVWPAPAITPAVTVEGMRWAQAFARDRAVMWTLHMAENDHDERLHWMSPAEYMECYGLLDERLQVAHCVYFDRKDVRLLHRHNVKVASQVVSNAYLGSGVAPVPEMVERGMAVGIGTDDGNCNDSVNMIGDMKFMAHIHRAVHRDADVLTPEKILEMATIDGARSLGMDHEIGSIETGKRADLILLDLRHPQTTPHHHLAATIVFQAYGNEVDTVLIDGNVVMENRRLSFLPPERELAFLEEAQSRATAILQRANMVANPAWRSL
modifications: Pseudomonas
B8: D248N: mutated TriA variant of SEQ ID NO: 2 (protein)
chain: MQTLSIQHGTLVTMDQYRRVLGDSWVHVQDGRIVALGVHAESVPPPADRVIDARGKVVLPGFINAHTHVNQILLRGGPSHGRQLYDWLFNVLYPGQKAMRPEDVAVAVRLYCAEAVRSGITTINDNADSAIYPGNIEAAMAVYGEVGVRVVYARMFFDRMDGRIQGYVDALKARSPQVELCSIMEETAVAKDRITALSDQYHGTAGGRISVWPAPAITPAVTVEGMRWAQAFARDRAVMWTLHMAESNHDERLHWMSPAEYMECYGLLDERLQVAHCVYFDRKDVRLLHRHNVKVASQVVSNAYLGSGVAPVPEMVERGMAVGIGTDDGNCNDSVNMIGDMKFMAHIHRAVHRDADVLTPEKILEMATIDGARSLGMDHEIGSIETGKRADLILLDLRHPQTTPHHHLAATIVFQAYGNEVDTVLIDGNVVMENRRLSFLPPERELAFLEEAQSRATAILQRANMVANPAWRSL
modifications: Pseudomonas
B9: S247G: mutated TriA variant of SEQ ID NO: 2 (protein)
chain: MQTLSIQHGTLVTMDQYRRVLGDSWVHVQDGRIVALGVHAESVPPPADRVIDARGKVVLPGFINAHTHVNQILLRGGPSHGRQLYDWLFNVLYPGQKAMRPEDVAVAVRLYCAEAVRSGITTINDNADSAIYPGNIEAAMAVYGEVGVRVVYARMFFDRMDGRIQGYVDALKARSPQVELCSIMEETAVAKDRITALSDQYHGTAGGRISVWPAPAITPAVTVEGMRWAQAFARDRAVMWTLHMAEGDHDERLHWMSPAEYMECYGLLDERLQVAHCVYFDRKDVRLLHRHNVKVASQVVSNAYLGSGVAPVPEMVERGMAVGIGTDDGNCNDSVNMIGDMKFMAHIHRAVHRDADVLTPEKILEMATIDGARSLGMDHEIGSIETGKRADLILLDLRHPQTTPHHHLAATIVFQAYGNEVDTVLIDGNVVMENRRLSFLPPERELAFLEEAQSRATAILQRANMVANPAWRSL
modifications: Pseudomonas
B10: S247A: mutated TriA variant of SEQ ID NO: 2 (protein)
chain: MQTLSIQHGTLVTMDQYRRVLGDSWVHVQDGRIVALGVHAESVPPPADRVIDARGKVVLPGFINAHTHVNQILLRGGPSHGRQLYDWLFNVLYPGQKAMRPEDVAVAVRLYCAEAVRSGITTINDNADSAIYPGNIEAAMAVYGEVGVRVVYARMFFDRMDGRIQGYVDALKARSPQVELCSIMEETAVAKDRITALSDQYHGTAGGRISVWPAPAITPAVTVEGMRWAQAFARDRAVMWTLHMAEADHDERLHWMSPAEYMECYGLLDERLQVAHCVYFDRKDVRLLHRHNVKVASQVVSNAYLGSGVAPVPEMVERGMAVGIGTDDGNCNDSVNMIGDMKFMAHIHRAVHRDADVLTPEKILEMATIDGARSLGMDHEIGSIETGKRADLILLDLRHPQTTPHHHLAATIVFQAYGNEVDTVLIDGNVVMENRRLSFLPPERELAFLEEAQSRATAILQRANMVANPAWRSL
modifications: Pseudomonas

The format of this data set is biochemical. The conditions noted are these: pH 7.2. An outline of the steps: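 TriA variants, N-His-tagged, were expressed in E. coli BL21(DE3) Gold with groEL/groES chaperones and purified by Ni-IDA affinity. Enzyme in 25 mM sodium phosphate pH 7.2 was incubated with azine substrates at 1 nM to 10 nM, 30° C. Products were identified by UPLC-HR-MS.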
Take B1: the “Degradation in % of 6-cyclopentyl-N4-(2,3,4,5,6-pentafluorophenyl)-1,3,5-triazine-2,4-diamine” value was found to be 5% and the “Degradation in % of Melamine” value was 0%.
As for B2, the “Degradation in % of 6-cyclopentyl-N4-(2,3,4,5,6-pentafluorophenyl)-1,3,5-triazine-2,4-diamine” value is reported as 3% and the “Degradation in % of Melamine” value is listed as 20%.
With B3, the “Degradation in % of 6-cyclopentyl-N4-(2,3,4,5,6-pentafluorophenyl)-1,3,5-triazine-2,4-diamine” value is on record as 0% and the “Degradation in % of Melamine” value is on record as 7%.
Regarding B4, the “Degradation in % of 6-cyclopentyl-N4-(2,3,4,5,6-pentafluorophenyl)-1,3,5-triazine-2,4-diamine” value is on record as 0% and the “Degradation in % of Melamine” value was 3%.
Consider B5, for which the “Degradation in % of 6-cyclopentyl-N4-(2,3,4,5,6-pentafluorophenyl)-1,3,5-triazine-2,4-diamine” value is 2% and the “Degradation in % of Melamine” value was found to be 3%.
On to B6, for which the “Degradation in % of 6-cyclopentyl-N4-(2,3,4,5,6-pentafluorophenyl)-1,3,5-triazine-2,4-diamine” value was found to be 0% and the “Degradation in % of Melamine” value was 0%.
B7: the “Degradation in % of 6-cyclopentyl-N4-(2,3,4,5,6-pentafluorophenyl)-1,3,5-triazine-2,4-diamine” value is given as 2% and the “Degradation in % of Melamine” value was 0%.
As to B8, the “Degradation in % of 6-cyclopentyl-N4-(2,3,4,5,6-pentafluorophenyl)-1,3,5-triazine-2,4-diamine” value worked out at 4% and the “Degradation in % of Melamine” value came to 11%.
In the case of B9, the “Degradation in % of 6-cyclopentyl-N4-(2,3,4,5,6-pentafluorophenyl)-1,3,5-triazine-2,4-diamine” value was determined as 2% and the “Degradation in % of Melamine” value was 2%.
As for B10, the “Degradation in % of 6-cyclopentyl-N4-(2,3,4,5,6-pentafluorophenyl)-1,3,5-triazine-2,4-diamine” value was determined as 0% and the “Degradation in % of Melamine” value is 1%.
